In one data set the target is T1, SKN-1 peptides (UniProt P34707).
T1 sequence: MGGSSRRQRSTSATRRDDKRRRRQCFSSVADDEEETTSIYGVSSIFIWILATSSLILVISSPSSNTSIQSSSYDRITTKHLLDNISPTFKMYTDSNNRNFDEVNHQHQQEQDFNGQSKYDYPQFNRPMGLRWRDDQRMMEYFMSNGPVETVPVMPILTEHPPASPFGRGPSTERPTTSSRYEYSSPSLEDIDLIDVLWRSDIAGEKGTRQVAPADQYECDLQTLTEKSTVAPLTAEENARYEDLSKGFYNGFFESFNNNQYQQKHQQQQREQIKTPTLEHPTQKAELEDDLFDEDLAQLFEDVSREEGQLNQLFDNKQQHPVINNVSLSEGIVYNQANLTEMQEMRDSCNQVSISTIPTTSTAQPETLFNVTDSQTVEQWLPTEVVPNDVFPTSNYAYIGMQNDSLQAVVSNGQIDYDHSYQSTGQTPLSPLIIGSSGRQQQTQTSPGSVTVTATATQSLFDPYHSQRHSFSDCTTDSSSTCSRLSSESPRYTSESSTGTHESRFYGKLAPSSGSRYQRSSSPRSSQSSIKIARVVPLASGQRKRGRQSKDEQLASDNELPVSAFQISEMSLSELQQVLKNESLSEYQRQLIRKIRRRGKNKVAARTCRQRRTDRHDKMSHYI

Data set [1] has as its target T2, SKN-1 DNA binding domain (SKN domain, 85 aa) (Caenorhabditis elegans, UniProt P34707 SEQ:1-85).
T2 sequence: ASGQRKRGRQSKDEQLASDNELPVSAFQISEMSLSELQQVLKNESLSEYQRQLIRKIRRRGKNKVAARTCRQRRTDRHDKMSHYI
The data set is described as follows: EMSA; no binding to mutant probe; as unlabeled competitor much less effective than wild type. Conditions: label: 32P. As for the experimental part: (§1) FIGS. 4A and 4B: Specific binding of SKN-1 to an essential gcs-1 promoter sequence. 4A: Binding of full-length SKN-1 to site 3 within the gcs-1 composite element, assayed by EMSA. Lanes 2-5 show binding of increasing amounts of in vitro translated SKN-1 protein (0 μl, 0.25 μl, 0.5 μl, 3 μl translation lysate; indicated by a triangle) to the wild type site. […] A background species is labeled. Lanes 6-10 show the same assay performed with the mutant probe. In lanes 11-20, SKN-1-DNA binding is assayed in the presence of the indicated unlabelled competitor oligonucleotides. Lanes 12-15 and 17-20 correspond to addition of a 20-, 50-, 150-, and 400-fold molar excess of competitor over the labeled wild-type DNA. 4B: The in vitro translated SKN-1 DNA binding domain (FIG. 1B) binds specifically to the gcs-1 composite element. Binding was assayed as in 4A.
(§2) Remarkably, SKN-1 binding site 3 is located within a 42 bp gcs-1 promoter element that is similar to a composite motif through which SKN-1 activates med-1 and med-2 in the embryo (FIGS. 1A and 3C) (Maduro et al. Mol. Cell 7: 475-485 (2001)). The conservation between these gcs-1 and med promoter elements is particularly striking because they are located at identical distances from their respective translation starts, but contain different numbers of SKN-1 sites (FIG. 3C). […]
(Mobility shift assays separate free from complexed probe on a gel.)

Another data set addresses T3, SKN-1 full-length (Caenorhabditis elegans, UniProt P34707 SEQ:1-533).
T3 sequence: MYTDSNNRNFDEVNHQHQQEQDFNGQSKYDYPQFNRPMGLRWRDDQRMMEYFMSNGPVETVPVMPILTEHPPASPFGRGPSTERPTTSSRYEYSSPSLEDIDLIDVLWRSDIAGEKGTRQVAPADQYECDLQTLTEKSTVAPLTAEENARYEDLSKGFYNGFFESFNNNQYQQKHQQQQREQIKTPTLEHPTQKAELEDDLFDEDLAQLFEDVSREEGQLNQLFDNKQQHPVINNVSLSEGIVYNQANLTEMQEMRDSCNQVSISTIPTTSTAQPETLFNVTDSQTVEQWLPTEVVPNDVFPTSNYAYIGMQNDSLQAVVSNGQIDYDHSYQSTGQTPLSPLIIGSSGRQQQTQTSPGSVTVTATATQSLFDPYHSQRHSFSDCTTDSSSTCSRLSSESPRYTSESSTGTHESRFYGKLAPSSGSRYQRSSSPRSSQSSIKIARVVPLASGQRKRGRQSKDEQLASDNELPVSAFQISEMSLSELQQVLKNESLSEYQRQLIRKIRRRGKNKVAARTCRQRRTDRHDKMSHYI
Described as above. As to conditions: label: 32P. As for the experimental part: as §1, §2

Turning to GSK-3, in the data set with SKN-1 peptides, the “phosphorylation of SKN-1 by GSK-3” value is given as “GSK-3 then phosphorylates SKN-1 sequentially in the amino-terminal direction” and the “phosphorylation of SKN-1 peptides by GSK-3” value was “Phosphorylation by GSK-3 required priming phosphorylation at a serine or threonine residue located four positions carboxyl-terminal to the GSK-3 site”.

B1: gcs-1 composite element, site 3 mutant (dsDNA)
DNA 1: ACTTTCTGCAGATGAGATTTAATGTTTCCTTTTGATTTTCT
DNA 2: AGAAAATCAAAAGGAAACATTAAATCTCATCTGCAGAAAGT
On to B1, for which the binding result (in data set [1]; with SKN-1 full-length) was “no binding” in each case.

These data come from US20080141385, “Skn-1 and Gsk-3 Genes and Proteins” (published 2008).
